Source: the supplement of paper PMC9170038

Experiments:
[1] = test system: K4 kissing-loop RNA reporter; test: apparent KD of K4 kissing-loop reporter; higher = weaker reporter binding; details: Eterna round: R107;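 note: bound reporter read as fluorescence of individual clusters on recovered sequencing chips by microscopy, with normalized cluster intensities fitted with a binding model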
Procedure: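 RNA-MaP round R107: designed RNA switches with theophylline, tryptophan, arginine or FMN aptamers are transcribed on-chip within common flanks. They are titrated with a labelled K4 kissing-loop RNA reporter in RNA-MaP buffer (100 mM Tris pH 7.5, 80 mM KCl, 4 mM MgCl2), without ligand or with the indicated ligand. Median apparent KD per design.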

MS2 coat protein = test: apparent KD of MS2 coat protein; designed switch direction (-1 OFF switch, 1 ON switch): -1; higher = weaker reporter binding
In short: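 Stalled E. coli RNA polymerase transcribed designed RNA switches on Illumina chips, which were then titrated with SNAP-549-labelled MS2 coat protein, doubling from 0.7 or 1.5 nM to 3 µM. Steps lasted from 0.8–1.5 h at the lowest concentration to 10–20 min at the highest. The apparent KD is each design's median over clusters of curve-fitted normalised fluorescence.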

[2] = input ligand: theophylline 20 uM
[3] = input ligand: tryptophan 2.4 mM
[4] = Eterna round: R95, input ligand: FMN 200 uM
[5] = Eterna round: R95, input ligand: microRNA oligo, concentration not stated
[6] = Eterna round: R95, input ligand: none
[7] = input ligand: microRNA oligo, concentration not stated

Sequence	apparent KD of K4 kissing-loop reporter ([1]; input ligand: FMN 200 uM) [nM]	apparent KD of K4 kissing-loop reporter ([1]; input ligand: arginine 13.2 mM) [nM]	apparent KD of K4 kissing-loop reporter ([1]; input ligand: none) [nM]	apparent KD of K4 kissing-loop reporter [1, 2] [nM]	apparent KD of K4 kissing-loop reporter [1, 3] [nM]	apparent KD of MS2 coat protein (MS2 coat protein; [5]) [nM]	also measured
GCCGUACGCAUGGAUACCAGAGAUGUUAAUCUCGAUGCCAGUGAUGUUGGCUUUAGCAUACUCCCUUGGCAGCCAUGCGUACGGC	312	241	292	186	267	–	–
AAUGUACAAGUGAUGUUUGUACUUUCCGAAGGAGCGUCAAAUAAGACAGGUAGGUCGCGGAUACUCUAAAUAAUCAGGUCAUUAA [JR_ExcArginiA_Sub019]	89.4	88	88.9	87.2	85	–	–
GGAUGCAUAGUAGAUACCAGCAAGCUCGGAUAGUGAUGUUGUUCGCAGUCAUUUCGGUAGUGCCCUUGGCAGCUAGACGCCCGAU [theeternabot_exclusion_KL_Theo_B_36]	109	92.7	104	92.3	97.5	–	–
CGCCGUAAGGCGAGCGCUCCCACUCCGGAAGGAGCGCCCGAAAGGGCAGGUAGGUCGCCGGAGUGAUGUUCCGGUGGAGGGCUCG [#2 Exclusion - Arginine A Attempt #28 (Inspired by Omei)]	353	261	380	267	330	–	–
ACACGUGUGGCAGGAUAUCGGGCUGUGGAUCGGCUGGUUGCUUAUUCUCGACCAGUGAUGUUGGUACGAGAAGGGCUACCCAGAA [Diorce]	149	113	114	102	123	–	–
GAUGCCAUGAUCCUCCUGGUAUCGGGAGAUACCAGCGUGCUGACACGCCCUUGGCAGCUCCAUUCGAGAGUGAUGUUGUCGAGAA [KL-SSTheo-A8 #analogue]	453	114	330	237	287	–	–
GCCGCCGCGGCAGGAUAUAGACAUUGAGUGAUGUUCGGUGCUUAUCCAAAGUGCUGUUUCGGCCAACUAGAAGGGCCGCGGCGGC	204	94	119	103	119	–	–
AGGCACGAGCAAGGAUAUUGAGUAGAGUGAUGUUCUGCCUGGGUUGGCUCGAAAGAGCCUUCUCAGCGAGAAGGUGCUCGUGCCU [#2 Same State - FMN A Attempt #22 (HarryS)]	290	603	616	367	719	–	–
AGUACUAACACGAAAGUGUUAGUACAAUAAGCUUGUAAAACAUGAGGAUCACCCAUGUCCUCAUAAGCUCGUCUUAU [Mat - Sensor v3 - Turn-off var 2 - D47] (puzzle: Sensor v3, turn-off variant 2)	–	–	–	–	–	11.5	apparent KD of MS2 coat protein (MS2 coat protein; [4]): 250 nM; apparent KD of MS2 coat protein (MS2 coat protein; [6]): 446 nM
UUCCUACAUGAGGAUCACCCAUGUCAGGAUAUCUCCUCACCGCGAAAAGGCGGUGAAAAGAGAAGGGACAGGAA [Usbian] (puzzle: Exclusion 1)	–	–	–	–	–	10.7	apparent KD of MS2 coat protein (MS2 coat protein; [4]): 16 nM; apparent KD of MS2 coat protein (MS2 coat protein; [6]): 13.8 nM
UUAGCGUAAGUAAGGAUAUGCUGGUCUAAUGAUCAGCAGAAGGUACAUGAGGAUCACCCAUGUGGAUUCGUUAU [Mod of JL 10 - Jieux - Brourd's mod of Exclusion 4] (Eterna round: R97, puzzle: Brourd's mod of Exclusion 4)	–	–	–	–	–	–	apparent KD of MS2 coat protein (MS2 coat protein; input ligand: FMN 200 uM): 35.8 nM; apparent KD of MS2 coat protein (MS2 coat protein; input ligand: none): 19.2 nM
GGAUAAAAGUCAGGAUAUACGUAUCGCUAGCGAGUAGAAGGGACACAUGAGGAUCACCCAUGUGAGUUCUCAAUAAGAAACACG [Prohibition 61 - Jieux - Exclusion NG 1] (Eterna round: R96, puzzle: Exclusion NG 1)	–	–	–	–	–	–	apparent KD of MS2 coat protein (MS2 coat protein; input ligand: FMN 200 uM): 45.5 nM; apparent KD of MS2 coat protein (MS2 coat protein; [7]): 16.3 nM; apparent KD of MS2 coat protein (MS2 coat protein; input ligand: none): 19.5 nM
GAUUAUGCGAGCUUUAGGGACAUGAGGAUCACCCAUGUUCGUCUUAUUGGUCUAGAUACACUGACAUACCUAAAUCU [JMF 58] (puzzle: Sensor v3, turn-off variant 1)	–	–	–	–	–	19.1	apparent KD of MS2 coat protein (MS2 coat protein; [4]): 14.8 nM; apparent KD of MS2 coat protein (MS2 coat protein; [6]): 14 nM
GCGCCAUCGUGAGAUGGCGUAUAUACAUGAGGAUCACCCAUGUAGGAUAUCGAUUGCUUUGCAGUCGAGAAGGGCAAGGUAUUU [JL ENG3 3.91] (Eterna round: R96, puzzle: Exclusion NG 3)	–	–	–	–	–	–	apparent KD of MS2 coat protein (MS2 coat protein; input ligand: FMN 200 uM): 34 nM; apparent KD of MS2 coat protein (MS2 coat protein; [7]): 25.5 nM; apparent KD of MS2 coat protein (MS2 coat protein; input ligand: none): 33.8 nM
AAAUAACAAGCAGGAUCCUACAUGAGGAUCACCCAUGUGCUCGUCUUAUAAAGUACUAUCACGAAAGUGAUAGUACU [Mat - Sensor v3 - turn-off var 1 - Eli Mod - D72] (puzzle: Sensor v3, turn-off variant 1)	–	–	–	–	–	93	apparent KD of MS2 coat protein (MS2 coat protein; [4]): 153 nM; apparent KD of MS2 coat protein (MS2 coat protein; [6]): 156 nM
GUGACACAUGAGGAUCACCCAUGUGAGGAUAUGAUACUAUGUACUUCGGUACAUAGUAUCAGAAGGCACAGUGA [Ex1-3: 7] (puzzle: Exclusion 1)	–	–	–	–	–	43.2	–
GGGCUUCGAGUCAGGAUAUAAGGCCGCUGGCCCAUUUAGAAGGGACUUGAGGAUCACCCAAGUCACCACGGACG [Geceisbi] (Eterna round: R97, puzzle: Brourd's mod of Exclusion 4)	–	–	–	–	–	–	apparent KD of MS2 coat protein (MS2 coat protein; input ligand: FMN 200 uM): 19.3 nM; apparent KD of MS2 coat protein (MS2 coat protein; input ligand: none): 16.8 nM
UUUUUCAGGCCAGAUCCUCACAUGAGGAUCACCCAUGUGCUCGUCUGUUUUCGCUCUAGCUUUUUUUUGGUAGUGCU [Level Boss var2-16] (puzzle: Sensor v3, turn-off variant 1)	–	–	–	–	–	31.8	apparent KD of MS2 coat protein (MS2 coat protein; [4]): 164 nM; apparent KD of MS2 coat protein (MS2 coat protein; [6]): 243 nM
UACUUCCGAGGAUAUACAUGAGGAUCACCCAUGUGCUUCAGCAUUGAAAGAUGCAUGGGUAGAAGGCGGUAGUU [LRO-Excl3-18] (puzzle: Exclusion 3)	–	–	–	–	–	297	apparent KD of MS2 coat protein (MS2 coat protein; [4]): 253 nM; apparent KD of MS2 coat protein (MS2 coat protein; [6]): 171 nM
AGUCCACAUGAGGAUCACCCAUGUCAGGAUAUCUGCUGGAAGAGGGCAGAAAGCCAGGAGAGAAGGGACCUGGG [Usarila] (puzzle: Exclusion 1)	–	–	–	–	–	34	–
UCAAGUAUGUAGGAUAUCGAUGUCCUCGGACAUCGAGAAGGACGUACAUGAGGAUCACCCAUGUAACUUGCAUG [Exclusion 6 - B - 10:b] (puzzle: Exclusion 6)	–	–	–	–	–	44.3	–
GACUAGGGAGGAUAUAUUUACAGUGUACCUCGGAUGAUCGCACUUGAGGAUCACCCAAGUAGAAGGCUCGAGGG [EX2 #28] (Eterna round: R97, puzzle: Exclusion 2)	–	–	–	–	–	–	apparent KD of MS2 coat protein (MS2 coat protein; input ligand: FMN 200 uM): 30.4 nM; apparent KD of MS2 coat protein (MS2 coat protein; input ligand: none): 33.2 nM
